The values that follow come from publication PMC6823300, “The molecular basis of monopolin recruitment to the kinetochore” (Chromosoma, 2019).

Sequences and labels used below:
B1: S. pombe Csm1 C-terminal globular domain (residues 125–261), wild type [S. pombe] / Sp Mis13 5–17 peptide (Dsn1-N/Box 1), fluorescein isothiocyanate-labelled [modified: fluorescein isothiocyanate-labelled at its N-terminus; fluorescein … (parent complex)
chain 1: NAGADADDTIVKDLKKELENEKKANHSLKNELLKTREQIKNYSKINILIKELFGLEVADCIEDEDGYRFNCKNTGRRGTLEYQLLLDDQNFTFTPRLNVQTDEELMKHLPDYLLEEIIFTKEQGKLFSARLMKALQD
chain 2: PEEQEGFVFVRKG

Variants of B1 are the subject of this test. Kind of test: fluorescence polarisation; point at 250 µM protein (highest concentration shown); parent: 140; read off a plot. On the technique in general: Fluorescence polarisation rises when a labelled molecule tumbles more slowly, as on binding a larger partner.
For chain 1 I117D, the response was approximately 73 mP.
